{"source": "patent US20110009283A1", "key": {"[1]": {"target": "Rattus Kv1.2 (Rattus) (UniProt P63142)", "sequence (P63142 whole entry)": "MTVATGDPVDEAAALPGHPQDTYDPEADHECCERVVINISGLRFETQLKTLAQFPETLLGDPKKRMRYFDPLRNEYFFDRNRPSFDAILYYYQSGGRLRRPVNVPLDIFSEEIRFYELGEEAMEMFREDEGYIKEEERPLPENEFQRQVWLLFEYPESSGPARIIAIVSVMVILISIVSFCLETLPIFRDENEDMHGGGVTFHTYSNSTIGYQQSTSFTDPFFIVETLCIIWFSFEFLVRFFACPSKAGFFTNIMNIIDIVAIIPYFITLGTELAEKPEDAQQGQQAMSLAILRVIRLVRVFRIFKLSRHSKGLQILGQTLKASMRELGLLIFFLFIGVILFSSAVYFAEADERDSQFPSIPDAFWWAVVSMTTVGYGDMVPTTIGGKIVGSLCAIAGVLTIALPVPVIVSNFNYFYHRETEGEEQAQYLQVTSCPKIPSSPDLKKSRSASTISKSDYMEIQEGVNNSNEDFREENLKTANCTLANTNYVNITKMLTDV", "assay": "two-electrode voltage clamp, kinetics of block in Xenopus oocytes"}, "[2]": {"target": "Rattus Kv1.2 (Rattus) (UniProt P63142)", "assay": "two-electrode voltage clamp, block of currents in Xenopus oocytes, dose-response fit"}, "[3]": {"target": "KcsA-Kv1.3 (KcsA carrying a segment of the Kv1.3 pore loop)"}, "[4]": {"target": "KcsA-Kv1.3 (KcsA carrying a segment of the Kv1.3 pore loop)", "remark": "listed apart in the source"}, "[5]": {"target": "KcsA-Kv1.3 (KcsA carrying a segment of the Kv1.3 pore loop)", "remark": "listed apart in the source"}, "[6]": {"target": "Kv1.3 K+ channel, wild-type, expressed in cells (species not stated) (Homo sapiens (Human)) (UniProt P22001)", "assay": "cell-based or functional assay"}, "[7]": {"target": "BK channel (species not stated)", "assay": "cell-based or functional assay"}, "[8]": {"target": "Homo Kv1.3 (Homo) (UniProt P22001)", "sequence (P22001 whole entry)": "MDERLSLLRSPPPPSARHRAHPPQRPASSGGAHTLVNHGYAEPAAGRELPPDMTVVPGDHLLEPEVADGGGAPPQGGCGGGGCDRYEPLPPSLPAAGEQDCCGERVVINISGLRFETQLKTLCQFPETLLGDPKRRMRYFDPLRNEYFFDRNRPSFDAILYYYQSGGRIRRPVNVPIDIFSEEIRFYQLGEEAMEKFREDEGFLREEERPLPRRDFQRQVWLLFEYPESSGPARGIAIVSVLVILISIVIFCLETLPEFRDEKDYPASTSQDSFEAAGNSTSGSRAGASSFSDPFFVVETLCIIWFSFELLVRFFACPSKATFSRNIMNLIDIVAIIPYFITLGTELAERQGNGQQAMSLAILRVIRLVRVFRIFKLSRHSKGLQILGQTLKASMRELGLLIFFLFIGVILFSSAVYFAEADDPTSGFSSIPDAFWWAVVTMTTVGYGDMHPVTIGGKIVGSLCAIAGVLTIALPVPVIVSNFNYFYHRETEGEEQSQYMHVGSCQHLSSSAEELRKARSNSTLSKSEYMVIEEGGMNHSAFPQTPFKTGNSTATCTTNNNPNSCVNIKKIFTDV", "assay": "cell-based or functional assay"}, "[9]": {"target": "Kv1.1 K+ channel (species not stated)", "assay": "cell-based or functional assay"}, "[10]": {"target": "Kv1.2 K+ channel (species not stated)", "assay": "cell-based or functional assay"}, "[11]": {"target": "Homo Kv1.3 (Homo) (UniProt P22001)", "assay": "two-electrode voltage clamp, block of currents in Xenopus oocytes, dose-response fit"}, "[12]": {"target": "KcsA-Kv1.3 (KcsA carrying a segment of the Kv1.3 pore loop)", "remark": "listed apart in the source"}, "[13]": {"target": "KcsA-Kv1.3 (KcsA carrying a segment of the Kv1.3 pore loop)", "assay": "phage library panning on immobilized KcsA-1.3"}, "[14]": {"target": "Kv1.3 K+ channel, wild-type, expressed in cells (species not stated) (Homo sapiens (Human)) (UniProt P22001)", "assay": "panning of a 2:2:96 phage mixture on HEK cells expressing Kv1.3"}}, "data": [{"substance": "mokatoxin-1 (MK-1), synthesized peptide (peptide; other documents disagree on this pair)", "values": [{"measurement": "koff", "setting": "[1]", "result": 0.16, "unit": "s⁻¹"}, {"measurement": "kon", "setting": "[1]", "result": 260000, "unit": "M⁻¹ s⁻¹"}, {"measurement": "Ki", "setting": "[2]", "result": 620, "unit": "nM"}]}, {"substance": "Dendroaspis natriuretic peptide (DNP) phage (from UniProt P28374 1-38)", "values": [{"measurement": "Output (% Ligands)", "setting": "[3]", "result": 0, "unit": "%"}]}, {"substance": "Kaliotoxin-1 phage (KTX-phage) (peptide)", "values": [{"measurement": "Output (% Ligands)", "setting": "[3]", "result": 100, "unit": "%"}, {"measurement": "Fold Enrichment", "setting": "[4]", "result": 3.6, "unit": "fold"}]}, {"substance": "Shk phage (sea anemone K+ channel toxin ShK on phage) (peptide)", "values": [{"measurement": "% phages, OUTPUT", "setting": "[5]", "result": 20, "unit": "%"}]}, {"substance": "Ce3 (Centruroides elegans toxin Ce3) (peptide)", "values": [{"measurement": "approximate IC50 (nM) of channel block", "setting": "[6]", "result": 366, "unit": "nM"}]}, {"substance": "fasciculin-2 phage (from UniProt P0C1Z0 1-61) (peptide)", "values": [{"measurement": "Output (% Ligands)", "setting": "[3]", "result": 0, "unit": "%"}]}, {"substance": "mokatoxin-1 (MK-1), synthesized peptide", "values": [{"measurement": "approximate IC50 (nM) of channel block", "setting": "[7]", "result": "> 1000", "unit": "nM"}, {"measurement": "decrease in IL-2 secretion by CD3/CD28-activated human T cells at 10 nM", "setting": "[8]", "result": 50, "unit": "%"}, {"measurement": "decrease in TNF-α secretion by CD3/CD28-activated human T cells at 10 nM", "setting": "[8]", "result": 50, "unit": "%"}, {"measurement": "lowest concentration inhibiting cytokine secretion by T cells", "setting": "[8]", "result": 1, "unit": "nM"}, {"measurement": "approximate IC50 (nM) of channel block", "setting": "[9]", "result": "> 1000", "unit": "nM"}, {"measurement": "approximate IC50 (nM) of channel block", "setting": "[10]", "result": 680, "unit": "nM"}, {"measurement": "approximate IC50 (nM) of channel block", "setting": "[6]", "result": 3, "unit": "nM"}, {"measurement": "Ki", "setting": "[11]", "result": 1, "unit": "nM"}]}, {"substance": "mokatoxin-1-phage (peptide)", "values": [{"measurement": "% of the phage isolated after two rounds of selection", "setting": "[12]", "result": 60, "unit": "%"}, {"measurement": "% of the eluted phage after two rounds of panning", "setting": "[13]", "result": 16.6, "unit": "%"}, {"measurement": "% of phages after the 2nd panning", "setting": "[14]", "result": 15, "unit": "%"}]}]}
